In a protein production outcome set (Wang et al. 2014) one finds protein production data, which are given here for 20 sequences.

The data set is described as follows: label from the status in PepcDB records.

For the sequence “MGSASSCRRIYIGTEANQYLAEQTLIYSIRKHLSDPSIEIIPLTQTQQRVGGTRFGFVRFTLPQAMGYQGKALYLDADQLALTDLAPIFDLLPDDKAIACVYEAEGLYNGKPHVQTWHTSVMLLDCEQLAWQPDELFATVVPNKQEPKPGQIRYRNFMELQWFEQERIAKLPPSWNHFNIVTPETNIVHFSHVRSQPWKNPRHELTDFWLGYLKEAIAAGYLRRRDVVAAVARGHVHPWTLKAIA”, the protein production entry was “failed”.
The same measure for “MGSCCSCLNRDSVPDNHPTKFKVTNVDDEGVELGSGVMELTQSELVLHLHRREAVRWPYLCLRRYGYDSNLFSFESGRRCQTGQGIFAFKCSRAEEIFNLLQDLMQCNSINVMEEPVIITRNSHPAELDLPRAPQPPNALGYTVSSFSNGCPGEGPRFSAPRRLSTSSLRHPSLGEESTHALIAPDEQSHTYVNTPASEDDHRRGRHCLQPLPEGQAPFLPQARGPDQRDPQVFLQPGQVKFVLGPTPARRHMVKCQGLCPSLHDPPHHNNNNEAPSECPAQPKCTYENVTGGLWRGAGWRLSPEEPGWNGLAHRRAALLHYENLPPLPPVWESQAQQLGGEAGDDGDSRDGLTPSSNGFPDGEEDETPLQKPTSTRAAIRSHGSFPVPLTRRRGSPRVFNFDFRRPGPEPPRQLNYIQVELKGWGGDRPKGPQNPSSPQAPMPTTHPARSSDSYAVIDLKKTVAMSNLQRALPRDDGTARKTRHNSTDLPL”: “not failed”; for “MGSIDRYIFRTTLASFALVLVSLTGVIWITQALRGIDLMTSQGQTILTFLGITSLVVPALVLIISPIALMIAISHTLNKLATDSEIIVMNAAGFSPFRLFYPFFYATCVVALLVAFIAAYLAPDGMRRIKQWDAEITADVLTNILQPGRFAQLDKNLTIRIRERLPGGILAGIFIDDRRDPNERVSIVAEHGEVMKNDTGSFLVLETGNLQRFEVGKRDPALVAFGRYGFDMSKFSGQGRDVTLGIRERYLWELFSPSEDDPVYKQIPGQFRSALHDSLLAPIYPFAFAVLTFAFLGAPRTTRQSRNFSIGSSIVAVFGLRMAGFACSVMAVKSPAAVLVQYAMVLGAIGVGMWMIVGGIVVEPPPRLMEAINRSNARIARLFGRPATA”: “failed”.
Take “MGSLVHVKEATVITPSDQTPSSVLSLSALDSQLFLRFTIEYLLVYPPVSDPEYSLSGRLKSALSRALVPYFPFSGRVREKPDGGGGLEVNCRGQGALFLEAVSDILTCLDFQKPPRHVTSWRKLLSLHVIDVLAGAPPLVVQLTWLRDGGAALAVGVNHCVSDGIGSAEFLTLFAELSKDSLSQTELKRKHLWDRQLLMPSPIRDSLSHPEFNRVPDLCGFVNRFNAERLVPTSVVFERQKLNELKKLASRLGEFNSKHTSFEVLSAHVWRSWARSLNLPSNQVLKLLFSVNIRDRVKPSLPSGFYGNAFVVGCAQTTVKDLTEKGLSYATMLVKQAKERVGDEYVRSVVEAVSKERASPDSVGVLILSQWSRLGLEKLDFGLGKPVHVGSVCCDRYCLLLPIPEQNDAVKVMVAVPSSSVDTYENLVTSPNA”: the protein production result is listed as “failed”.
The same measure for “MGSRDLISSLPDEILGKVLSLLPTKRAASTAVLSKRWNNLPALVDKLDINDAIGGPGGFPEFIDKTLALLTNSTTIKRTSLNNEFQYGESQVNTWIRSFLERGCLQLYLNAQSLYTIDTEFFTSNTLVELTITGGFSPDGLLPPGGVFFPKLKTLSLVLMTFVDSDMYELFISGCPLLEEFLLRNDEIEIPPVWNALVSSPSIKRLTIVHHFPNYREAHDGCWFRTPNLVYLDYSSYVPDWYEVDLGSLVEARLDLRSWERLRDEKAGGYGDCDSVYDDEEYPDDPILGDVTNLVTGLSNIKTLHLSPDSLEVFYFCCKSMPVFHNLLTLSFESAKKEAGQCCHFSSISLLT”: “failed”.
With “MGSSARFRGRTDTMLLTRFNPENGTITVLSIPRDTRVEIPGYGTSKINAANVYGDVELTVQVVSQTLNYTPIDRYIRINTDAFRELVDLVGGVEVNVPKRMVYTDHTQKLYIDLQPGLQTLNGEQAEGFVRFRYDELGDIGRAQRQQLLIKALQEKLANPVMLTQLPKLYSVLQKYVDTDLTFAELMAIAQFSLRIQPDNLHLILLPGHFSGDGYGTSYWLPDYDRIDRVVAEHFSDRPSKLVDQRGSETGTLRIALQNASGSSGAAQDMADFLARHGYTNVLISEDWYQQTSETEIVAQQGDLGAAQVIRSVLGMGRVSANSTGVLSSDITIRIGRDWAAVLHLEHHHHHH”, the protein production result was “failed”.
The same measure for “MGSSGDLANSAERKLDDEKKRCDWRFTDNTPLIAACLLTGAVVLGVHYISICKDRTDISLPTLMESIESKCRSLGDAFNASAPESVLHPVPTQIGVAIWVAREEWSLPVHDTLDRIEKVVSGAGNRKQQFIQRIVRVSQLGSDGNLEKSSSSSTKWGGSSKVSQDPLANAAIKQQLGLSVAKHAYAVSLKEELLMHTISFFAAPPSAAKSVRCFLFDDKRAYCTVSTEMGMETTKREVEAAVATLLANWLEIENFRDANATQRWAMMRKVRGCHYALRALRQLKMSVDAHPEMPVPEGVRGAADRLEKLVRESDFAKLARAAADLQFHQLLLPQIYIPWDQAVVNHLSILMPVYGVITLAVRLIKENRKRAQVVQNS”: “failed”.
For “MGSSHHHHHHSSGRENLYFQGVKSEDQLVHICSREEWRTAEREGSRVPATFRADGFVHLSTPAQVHLPANRLFAGRTDLVLLRLDPTALGAPVKWEPGVPADPASMLFPHLYGPLPVAAVTGVEEYRPDADGTFPARR” the value was “not failed”; for “MGSSLSNLNDGTNGLAMGPGLGDIPESCVACVFMYLTPPEICNLAGLNRSFRGAASSDSVWEKKLPENYQDLLDLLPPERYHSLSKKDIFAVLSRPIPFDDDNKEVWIDRVTGRVCMAISARGMSITGIEDRRYWNWIPTEESRFHVVAYLQQIWWFEVDGTVRFHLPPGVYSLSFRIHLGRFTKRLGRRVCHFELTHGWDLKPVRFSLSTSDGQEASCEYYLDDVERNEALGKHKRGYWIEYRVGEFIVNGSEPSTEIQWSMKQIDCTHSKGGLCVDSVFINPIGDVKEHKRKAVLKEA”, “failed”.
On to “MGSSMEEKVVAVIMVGGPTKGTRFRPLSLNIPKPLFPIAGQPMVHHPISACKRIPNLAQIYLVGFYEEREFALYVSAISNELKVPVRYLREDKPHGSAGGLYHFRNLIMEDSPSHIFLLNCDVCCSFPLPKMLEAHRGYGGIGTLLVIKVSPESASQFGELVADPVTNELLHYTEKPETFVSDRINCGVYVFTPEIFNAIGDVSTQRKDRATLKRVSSFEALQPATRIPTDFVRLDQDILSPLAGKKRLYTYETMDFWEQIKSPGMSLRCSGLYLSQFRLTSPQLLASGDGTRSAIVIGDVYIHPSAKVHPTAKIGPNVSISANARVGPGVRLMSCIILDDVEIMENAVVTNAIVGWKSSIGRWSRVQAEGVYNSKLGVTILGDSVAVEDEVVVTSSIVLPNKTLNVSVQDEIIL”, for which the protein production entry is “failed”.
On to “MGTAWNYPDLGSKNPMSGMVQSETAVIGGAGNVGMGIVAALLDAGMPTVVIGRDAAKLDALRAQHGHSPLLDIVQGSVADDASARRLATELAQRHRPLGAVIASLGSPPKAGRLLDRPVAVLRRRLERDVLPHLAAARHLLPLLAEADGGGRYLLLGSPCALRAWSAHGDRSVAASATRMLAQVLHEEAKPLGVRVQLLSVEQPVCTPGRAKDACPEWIRAVDVGRAAVSLIAGPGQPGQAIVTVSRRPHAAPSASRLAGLHVSIPTREISP”, for which the protein production result is on record as “failed”.
For “MGTGEKTLKSFQLHRKQSVKVKDVPKGCLAIKVGSQGEEQQRFIVPVLYFNHPLFMQLLKEAEDEYGFDQKGTITIPCHVEEFRYVQALIDGERSVYNGNNHHHRHGGRDQYHHLVGCFRA” the value was “failed”.
With “MGTIGAAGCTVNRFAVALMPDSGGHPRKPIAGVDAPPPHLLLVARRMTRPGEHMALTTYTPVITVFAAGREWTLERAADLQTLWDNMVEADFGDDERLPYWTELWPSSLVLADWLHDNAGRIRGRTCLDMGCGLGLCSLVGQWLGARVTGMDYEPEALFHARRNAERNRVPQPLWTVMDWRAPAVRRHAADLVWGGDIMYERRFVTPVLDFLDHVLAPCGAAWVAEPGRTVYNHFRETLDARGWHARRVLSSETASLYEQPESVTVHLWEITRLEHHHHHH”, the protein production result is given as “failed”.
The same measure for “MGTITGEFTEHSAEAIAAMLSYIVQTEYEKKQLAKDTLQKYEEVVFLSQFANAVATCTGLQELIEVIRAEIRQVISVDEIFLYLYDQSQDSLTPLLYKTEESLQNFKAIEKIVERVLKLNQVEVIDDIQNDQDYLNQPSKIRSLLCYSLTVQNSIIGVLGLAHYQVKHFDSSDLNLFSTLTGQVAAAIRTAQYYETIKNYSQTLEIRLEHHHHHH”: “failed”; for “MGTKKNFVLDTNVILHDYNCLKNFQENDIYLPIVVLEELDKFKKGNEQINYNAREFVRELDLITDDSLFTHGAPLGEGLGKLFIVTGDSEAPKVHESFPARKPDHQILAVAEYLARKYPKMKNILVTKDVNLRMKARSIGILCEDYITDKVVNVDIFE”: “failed”.
Take “MGTPGEGLGRCSHALIRGVPESLASGEGAGAGLPALDLAKAQREHGVLGGKLRQRLGLQLLELPPEESLPLGPLLGDTAVIQGDTALITRPWSPARRPEVDGVRKALQDLGLRIVEIGDENATLDGTDVLFTGREFFVGLSKWTNHRGAEIVADTFRDFAVSTVPVSGPSHLRGLCGMGGPRTVVAGSSDAAQKAVRAMAVLTDHPYASLTLPDDAAADCLFLRPGLPGVPPFLLHRGGGDLPNSQEALQKLSDVTLVPVSCSELEKAGAGLSSLCLVLSTRPHS”: the protein production entry is given as “failed”.
The same measure for “MGTPVVWEGNIGNPPEHKSFPNGNNEPRQLLRLNVMFDNSIPDGSGGYKDRGGFWANVEWWHPDAERFAQLFSKGMRVVVTGRAIMDTWKDKETGDDVWALKVEANRVAILPHRVNQVTMTQSNNTGQRQNAQQNNRPERQQNSAQQPGQHTDDLSHYGNGFDDDIPVLEHHHHHH”: “not failed”.
The same measure for “MGTRGNEEEEDWFSDAREEVSSVSDCNSEVADDFVQATGDLDLWTMNPESVTNRRQKFFQSMGFSFKKRDFDLDLDLLGDSSSDHIPVSKQLTSVSETDHEEEEKEEKLLRNESTSSGSSVSSFSTASLAEAFSFRGSFQNRAKNIDDQILLTRDYSSNSSSIAEGLSESDSSRFDSYGDLPNSPMSRYEESPKKGAKGWLKKLGVLTHVLDKTEECTDGESTRSSIRRQLTRVQSFKKQFKELSSLCVGQEFSAHDGSIVVMKFSHDGKYLASAGEDCVVRVWNIIEDERRDNEFEVAESDSSCVYFGMNDKSQIEPLKTENEKIEKSRGLLRKKSESTCAVLPSKVFSISETPQHEFRGHTGEILDLSWSEKGFLLSSSVDETVRLWRVGSSDECIRVFSHKSFVTCVAFNPVDDNYFISGSIDGKVRIWDVSQFRVVDYTDIRQIVTALCYRPDGKGAVVGSMTGECRFYHTTDNQLQLDRDISLHGKKKVPNKRITGFQFFPGDSDKVMVTSADSQIRIICGVDTICKLKKASSLRTTLMSPTFASFTSDGKHIVSTIEESGIHVWDFSQPNKKASSQKPKTIRSYEGFLSRNVSVAIPWLGQGKEDSIIADLEKSFAHFPVPLDYFSPMKGATTWPEEKLGVVAGTAAAAVSATVSSRSKLRLLKSVCQNVHGSTPHLWGLVIVTATWDGSIRVFHNYGLPIRV”: “failed”; for “MGTVMDVLKGDNRFSMLVAAIQSAGLTETLNREGVYTVFAPTNEAFRALPPRERSRLLGDAKELANILKYHIGDEILVSGGIGALVRLKSLQGDKLEVSLKNNVVSVNKEPVAEPDIMATNGVVHVITNVLQP”: “not failed”.
As for “MGVALRPLLAEYKESPGWDGLGGIAAVDAFNALYQFLSGIRQADGAPLMDGQGRITSHLSGLLFRNANLIEKNITPIYVFDGKPPVFKASTLSKRREVRENAADAWEKALKEGDEESARKYAMASSKIDAFIIDSSKELLSALGIAWIQAPEEGEAQSSFMTKNGDVTYAVSQDYDSLLFGAPDLVRNITVSGKKRIRGKVLSVYPERLRLEEVLTGLSVTQEELIQIALLIGTDYNSGVPGVGPKTAVKIVREGKFYDRIGESENAAEPDQLIGYFMDPPVERSYNIESRSPDPDRVIDLLCGEHGFTQERVEAGLERLGAKKGQATLDAWF”, the protein production result was “failed”.
